The series is described as follows: soluble on expression in E. coli; label from the status in PepcDB or PDB records.
As for “MNTNISGPLISLIVPVYNVKDYLKTCLQSILEQTYKNLEIILVDDGSDDGSSGICDEYARMDQRIKTIHLPHSGVSAARNAGLAAATGELLGFVDSDDWIDHDMYQYLYTLMQEHDADVSACTYLLEQEGRPSKIINNTGKLYVFSRKEIIRALVKNDLVKNYLWAKLFKRKLFDRLSFPVGRVYEDVAVLYKVFYSSQKVVLSCVSKYHYMIHKNESITRGGYDPVKEYHYFLSLYEQDKFIQNAELGGESSVGVLKRGIHLINHTLLCPPSPAFEDIIDETMLKMREYRHITPWQLGPSMSIKRYFMCKHFGFYRMLYRGYRAIFKRKHKLLID”, the “soluble on expression in E. coli” value was “not soluble”. Next, “MAHHHHHHMDTHALLALAQSAVDAGNVKAACEFYEVALAQSPNNDEVLEAYAEVMIHYAQDIPRAQQMLRHAIDINPNQGYVKYLNLAQLCEAEEALKCYEKAYEIASLMLHGCRKKKMKKTLQETMATMCCAVAELYLTDLCFAENAEQQCEQAVNRALELNSDLVEPHQLQASLRLSQCRPDEALQSLRRAVDATHRLGEEHQPTYESKIELGRLLMQVDPAEAFQFLLEVLQYGDNNPYVWFLLGESARMRRRYADAARLLRRARVMLVVSGGDATALSEVDAAINVLVQEMGGPEEAAQVKDLDHPYPLELLEAEDDEGAEEDGEDDLEEPEREPCDDEDDA”: “not soluble”; “MGSDKIHHHHHHMTMQQVLDGTATFMEHLGLNEEPLGVYYSDDKPENAFGPKTGVPISRELEESGKLDMREVMKSFTCVMGSIWLARKKHGAAFISQTEYGCPGGVYYCAMLQPHLRFIEHYVSTGFEGTPLQGERYMPDPDAMRNFILRVAPRKAPARYCIFKPLSLFSAQEKPEFIIFFARPEVLTGLFTQTVFTTGDMDCVASPFGAGCTNILGWPLYYKEKGIEKAVIGGFDPSARKFMKTDELTFTVPLSLYEKMLAALPESMFTHETDWKNVRKKVARSAKAWRVRRPGAKQPPPSTCPITY”: “not soluble”. Next, “MSISGIGSYAASMLTPSRGSAGTSASAAATAADNTPATKSGSGGVQKTDFTQMTHKQLFDWVNSKIASGEMSFDESSTFISMTVSMPVDGSSMAPDDKQPVNFMQSVRDGMERALQTNDSDLFARLQTALHTMQRSQGEVRGVNMTV”: “not soluble”. The same measure for “MGSDKIHHHHHHLMCCASRSVPRWPDNIFTEFLSPKRALGPEPCRPRMTPFWRAGQLCPSVQDRRVFSCEPPCAVFPRWRTMRRAYLLKQEVLPMKISVIGASRGIGRKVVEEALERGHSVTGMARSATSLGIDHAEFTAIDGDATNATDVTQAIDGADAVILTLGVPKDARVLKSTTLFSDATRTLITAMEEAGIKRLLTVTGFGAGDSKEKLSTPERLTQKAFLGRAYADKDLQEKLIRDSDLDWTIARPGILSDNRKSNAYKVLVEKETWRNGLINRSDVADFLVTAAEDESHIHKTPALQR”: “not soluble”; for “MRIPLVGKDSIESKDIGFTLIHEHLRVFSEAVRQQWPHLYNEDEEFRNAVNEVKRAMQFGVKTIVDPTVMGLGRDIRFMEKVVKATGINLVAGTGIYIYIDLPFYFLNRSIDEIADLFIHDIKEGIQGTLNKAGFVKIAADEPGITKDVEKVIRAAAIANKETKVPIITHSNAHNNTGLEQQRILTEEGVDPGKILIGHLGDTDNIDYIKKIADKGSFIGLDRYGLDLFLPVDKRNETTLRLIKDGYSDKIMISHDYCCTIDWGTAKPEYKPKLAPRWSITLIFEDTIPFLKRNGVNEEVIATIFKENPKKFFS”: “soluble”; for “MAHTTGENLFTMKRVLRNLEADHDALREALADGRRMRDLLPYGDYINRYRNLTRDPMVVAIHKQFHESGLGGLTIDESMFPLSLRFEDDDVTLVFRRPEGFRHGTNEESSQRPLIERRSRIVLFWKYAEPGTDALKRISLQMFDNEGPLEEATMLSEKIPLLTKPESLTTAMFIPTHADEPRFVFGS”: “not soluble”.

Regarding “MAHHHHHHMEEQESAENINMIKETIFGLPNSVILKIIHNNINLKNYKIRKEAVTTLGRCLSMFILYITDGALEHCEGEKRNTIFVRDILNSLDDSLFLDIYDELKRQIAIQEEIHKKESAKEAKSAAKGDTPSGADNAQGETNQVNKQDDLDILLQALE”, the “soluble on expression in E. coli” value is listed as “soluble”. “MSLEYKYELTIDKLLQSGVSSNPDQIINYTGKREFTFKDFSKRVNTLAKALISIGVKKGDRVAVIDWDTYVYLEAYFAVPMVDAVLHTVNVRYPQDLIYYTMDHAEDKYVIVRDEFVPILSKNREAFYFIKGWIVYSETGQIPDSLSPKYVYDDLMKESYSDIELPQLSENDLATTFYTSGTTGIPKGVQFTHRQIVLHSISSGLALADDPINLTSRDVIMPLVPMFHVHAWGVPYMSIMSGRRYVLPGRYDFDHIIDLIDKYNVSVIAMVPSILYLIVTNPNVKKIAGRGIKAIVGGGALPEGLANAAEKLGITAISGYGLSETAPILTLATYNERVKAMPESEKKKFRLKTGIPIPLVQLRVVDDKMNDVPKDEKTIGEIVVRAPWLTSVYVKNKEGTEALWRGDWMHTGDLAVMDEYGYIRIVDREKDAVKSGGEFIPSLVLEDAISSCSGVVENAVVGRPDEKWGERPVAFYTGTAKPDEIRKHLIEMVNAGRIAKFWIPDDFINIKEFAKTSTGKIDKKVLREMIKKEGHHHHHH”: the “soluble on expression in E. coli” value was “soluble”. “MEPAAGFLSPRPFQRAAAAPAPPAGPGPPPSALRGPELEMLAGLPTSDPGRLITDPRSGRTYLKGRLLGKGGFARCYEATDTETGSAYAVKVIPQSRVAKPHQREKILNEIELHRDLQHRHIVRFSHHFEDADNIYIFLELCSRKSLAHIWKARHTLLEPEVRYYLRQILSGLKYLHQRGILHRDLKLGNFFITENMELKVGDFGLAARLEPPEQRKKTICGTPNYVAPEVLLRQGHGPEADVWSLGCVMYTLLCGSPPFETADLKETYRCIKQVHYTLPASLSLPARQLLAAILRASPRDRPSIDQILRHDFFTKGYTPDRLPISSCVTVPDLTPPNPARSLFAKVTKSLFGRKKKSKNHAQERDEVSGLVSGLMRTSVGHQDARPEAPAASGPAPVSLVETAPEDSSPRGTLASSGDGFEEGLTVATVVESALCALRNCIAFMPPAEQNPAPLAQPEPLVWVSKWVDYSNKFGFGYQLSSRRVAVLFNNGTHMALSANRKTVHYNPTSTKHFSFSVGAVPRALQPQLGILRYFASYMEQHLMKGGDLPSVEEVEVPAPPLLLQWVKTDQALLMLFSDGTVQVNFYGDHTKLILSGWEPLLVTFVARNRSACTYLASHLRQLGCSPDLRQRLRYALRLLRDRSPA”: the “soluble on expression in E. coli” value was “soluble”. Consider “MASYTSEQAEALLKLQFDKYAKFIDDEVWAEVEGYYHPSGVLVHKGKEAVYGNKDKSTYIAKFAEGTGKSVGTTTNAKYEGSGDYLIITADFSSETEKAGTVKGRFVQI”, for which the “soluble on expression in E. coli” value is reported as “not soluble”. For “MGSDKIHHHHHHMRYNCLYLIFKESRFVKIAIVANTSWNIYNFRLNLIHFFLAHKYEVVCIAPVDRHTEALTTLPVTFVPVEIDSKGNNPIKDARLVGKFLSIYKKHKPDVILQYTIKPNIYGTLAAKLCGIPTINTVTGLGTVFLHDTCITRLAQQLYAFSFKFATVAVFQNEDDRDIFVQKRIITHAKTQIIKGSGVNTTHFIPAKTYSKAFAFLMVARLLYDKGIREYAQAAKCLHEQHGNNVQCLLIGAIDSDKQLGINKEDVHAWANRHHLIYKPFDTAILKEYQQANVVVLPSYREGLSKSLLEAGACGKPLIASNVSGCKEIVIDNWNGYLCEAKDAGNLFDKMNLMLETSPEQLAEMGKNSRDFIEQNFSDKIISNDYFYLIKRVTESKKTNTNDIH”, the “soluble on expression in E. coli” value was “not soluble”. Consider “MGSDKIHHHHHHMLSKMEINKLAMKESMTLLACPICGGEFSFSEPNSFICKNHHGFDIAKPGYLHLLKQVHKTKYDQALFESRKKVIASGFFEKLIERVTEIIAETKKEEVVIYDAGSGEGSHLARVVKNLQEKGRHVQAIGLDIAKEGVKQAARDYPGIVWTVADLANCPTQTETADVILNILSPSNYEEFKRLLKTDGFLLKVVPEANYLRELREFIYVDEKSSYSNESVTSRLAEKLTVEYVERVTYKAPIANELFADFLEMTPLGWHIDKDKKSELLINPPKELTVDLKIIIANRAHLL”, for which the “soluble on expression in E. coli” value is reported as “not soluble”. “MPTLGFRFRAYTDEQTLRALKAQLKLACKIYNTLRWADIYFYQRDGKGLTQTELRQLALDLRKQDDEYKQLYSQVVQQIADRYYEARQRFFEGLARFPKEKKPHKYYSLVYPQYGWKILHVREIRKGSKKKLITLKLSNLGTFKVIVHRDFPLDKVKRVVVKLTRSERIYITFVVDHEFPKLPNTGKVVAIDVGVEKLLVTSDGEYFPNLRPYEKALWKVKHLHRELSRKKFLSNNWFKAKVKLARAYEYLKNLRTDLYMKLGKWFAEHYDVVVMEGIHAKQLVGKSLRSLRRRLSDVGFGELRGVLKYQLEKYGKKLILVNPAYTSKTCARCGYVKNDLSLSDRVFVCPNCGWIADRDYNASLNILRGSGSERPLVPVELRPLPVLWQGGAMKQEAPSFMRGLEHHHHHH”: the “soluble on expression in E. coli” value is on record as “not soluble”. Turning to “MAPVTPDAVNARQQRPADPALRRLMHPHHRNYTASKASAHSVKSVSRCGKSRSELGRMERVGSVARSICSRHTRHGVDRSHFSLRDFFRGISANFELGKDFLREMNTPIHVSEAVFLPLSLCTLSPGRCLRLSPFGHSLTLGSHCEICINRSQVHVPQEFSSTQLSFFNNVHKIIPNKTFYVSLLSSSPSAVKAGLSQPSLLYAYLVTGHFCGTICPIFSTNGKGRLIMHLLLQGTSLHIPETCLKLLCENIGPTYELAVDLVGDAFCIKVSPRDTVYEKAVNVDEDAIYEAIKDLECGDELRLQIINYTQLILENKQ”, the “soluble on expression in E. coli” value is “not soluble”. With “MQKWIGIMGIIFILTGCKMSEAPTNLMEAPANEKWINELKEQIDKDLPVNYRLLTPMSNKDKQMIWSMDFKQDNKKEAVIFYKLPNADHSVYLAVYEKNGNGWKTKSTHKFNGGDVDIVEVGDFTGNGKRELLIGISVDRESLKHVMYVFSEENEDMREIYNRNYTKLFIDDLNKNGLKDLSLVTYEKDEKLIVEFIEQFKTLSEASFDPFINSIQRIQMGRISKSLKAIVIDAGVGAHSGITYVAKFDENHYEVLPIDGKEDLFNEYVVESKDVNEDGIIEFVRTVRPKGWEDKPHGDSPLFERYIQWSESGIKPIEERYIDIEKGYYVKIPKELIGKITISDEQKESNSQKFLETSTNETWLEVHIFKRKEWFGIKGYSAAVKTASHVYAVPKQPHFEKVKAYVKPLADYQQE”, the “soluble on expression in E. coli” value was “not soluble”. Turning to “MAHHHHHHMSSVKITLFQGKFRLDRLLGKGGFGEVYAGVQVSTGEPVAVKLERNKGRCFLFHEARVMQDIQNSMPGRTTPGIPELKYFGQEGDFRILIMSLLGPSLEDLHAKLGRFSLKTTVMLADEMLSRLEFIHSVGYIHRDLKPDNYLLGVGRNVRHLYLIDLGLSVRYRSTNGEHREMATGKSFVGTSRYASLRTHKGFSQSRRDDMEQLSYILIYLYRGHLPWSGLRMKDREAKEKAIGEIKQKLTTAQICSKCPSQFEDLLNYSRKLEFAESPQYEMCRILIASVLDTIGPNVKHDFQYDWVNVRKRDNSPPPPPPCIVTHERRATENKINLKKGNENGEKDAATIGSKIFCFFPGLSSSASQEMVLVNEK”, the “soluble on expression in E. coli” value is on record as “not soluble”. Next, “MSLTTRRDFIKKTVAGTAALSLGSIIPGFGSNSYQEILGANEKIRIGVIGVNSRGNALAQGFAKMKGCEVTYLCDVDSRALERCQADIHKISGRTPKGEKDIRKMLESDDFEAVVIATPDHWHGKAAIMAMQAGKHVYLEKPTSHNPAENEMLVRATLKYNRIVQVGNQRRSWPNVIKAIEEIKSGAIGKVRYAKSWYVNNRPSIGTGKVVPVPDYLDWDLWQGPAPRVPNFKDNYIHYNWHWFWNWGTGEALNNGTHFVDILRWGLGVDYPTKVDSVGGRYRFQDDWQTPDTQLITFQFGDEASCSWEGRSCNSTPVDGYGVGTAFYGETGTLFISGGNEYKITDLQGKVIKDVKSNLKFETGNLLNPSEKLDAYHFENWFDAIRKGGKLNSGIVDACISTQLVQLGNIAQRVGHSLDIDPGSGRILNDLEANKLWGREYEKGWEIREGHHHHHH”: “soluble”.

For the origin of these results see the DeepSol protein solubility set.
